Our source for the stoichiometry N values is publication PMC3179936.

In the assay the target is recombinant leucyl aminopeptidase of T. cruzi (rLAPTc), N-terminal His-tag (Trypanosoma cruzi). Description: AUC + SEC; sedimentation velocity of rLAPTc at 170, 56 and 10 μM, 25 mM Tris pH 8.0, 150 mM NaCl, 10°C, 42,000 rpm; s-values combined with Stokes radii from calibrated SEC (SEC-AUC method).

Turning to “recombinant leucyl aminopeptidase of T. cruzi (rLAPTc), N-terminal His-tag (enzyme)”, the stoichiometry N was found to be 10.1 subunits (species eluting at 9 ml) and 5.6 subunits (species eluting at 10 ml).

One may read the stoichiometry N as a count of units in the complex or per binding partner.
